Laboratory results taken from US6485936.

Molecular target: GAL4-HSF2N96C238 (HSF2 deletion mutant fused with the yeast GAL4-BD derived from pM) (yeast; human) (UniProt P04386)
Assay: cell-based or functional assay

Substance “VP16-HSF2BP (HSF2BP fused with the VP16 transcriptional activation domain derived from pVP16) (from UniProt O75031 1-334)” has a luciferase reporter activity in two-hybrid assay in K562 cells (induction fold against control VP16) of 11 fold.
